{
  "source": "paper PMC4931990",
  "molecular_target": "KDM2B/FBXL10 (UniProt Q8NHM5)",
  "assay": "co-IP, western blot",
  "conditions": "reference: wild type, EGF-treated; sites S374",
  "data": [
    {"substance": "c-Fos (from UniProt P01100) S374A, EGF-treated", "values": [
      {"measurement": "binding against the reference", "result": "stronger"}
    ]}
  ]
}
